One protein from doi:10.1101/2022.11.25.517900 (bioRxiv, 2022) can be followed below.

The series concerns the molecule itself. In words: cryo-EM structure.

B1: Vibrio alginolyticus PomB, full length, non-cleaved (without protease site insertion) (natural protein, UniProt O06874 1-315, looked up)
chain: MDDEDNKCDCPPPGLPLWMGTFADLMSLLMCFFVLLLSFSEMDVLKFKQIAGSMKFAFGVQNQLEVKDIPKGTSIIAQEFRPGRPEPTPIDVIMQQTMDITQQTLEFHEGESDRAGGTKRDEGKLTGGQSPATSTQNNESAEADMQQQQSKEMSQEMETLMESIKKALEREIEQGAIEVENLGQQIVIRMREKGAFPEGSAFLQPKFRPLVRQIAELVKDVPGIVRVSGHTDNRPLDSELYRSNWDLSSQRAVSVAQEMEKVRGFSHQRLRVRGMADTEPLLPNDSDDNRALNRRVEISIMQGEPLYSEEVPVIQ
In the case of B1, the binding result is “binds”.
